For assay [1], the target named is T1, recombinant mouse LRP5-His chimera (mouse, UniProt Q91VN0 31-1383).
T1 construct: extracellular domain; also called ECD of mouse LRP5; not shown: His tag
T1 sequence (looked up): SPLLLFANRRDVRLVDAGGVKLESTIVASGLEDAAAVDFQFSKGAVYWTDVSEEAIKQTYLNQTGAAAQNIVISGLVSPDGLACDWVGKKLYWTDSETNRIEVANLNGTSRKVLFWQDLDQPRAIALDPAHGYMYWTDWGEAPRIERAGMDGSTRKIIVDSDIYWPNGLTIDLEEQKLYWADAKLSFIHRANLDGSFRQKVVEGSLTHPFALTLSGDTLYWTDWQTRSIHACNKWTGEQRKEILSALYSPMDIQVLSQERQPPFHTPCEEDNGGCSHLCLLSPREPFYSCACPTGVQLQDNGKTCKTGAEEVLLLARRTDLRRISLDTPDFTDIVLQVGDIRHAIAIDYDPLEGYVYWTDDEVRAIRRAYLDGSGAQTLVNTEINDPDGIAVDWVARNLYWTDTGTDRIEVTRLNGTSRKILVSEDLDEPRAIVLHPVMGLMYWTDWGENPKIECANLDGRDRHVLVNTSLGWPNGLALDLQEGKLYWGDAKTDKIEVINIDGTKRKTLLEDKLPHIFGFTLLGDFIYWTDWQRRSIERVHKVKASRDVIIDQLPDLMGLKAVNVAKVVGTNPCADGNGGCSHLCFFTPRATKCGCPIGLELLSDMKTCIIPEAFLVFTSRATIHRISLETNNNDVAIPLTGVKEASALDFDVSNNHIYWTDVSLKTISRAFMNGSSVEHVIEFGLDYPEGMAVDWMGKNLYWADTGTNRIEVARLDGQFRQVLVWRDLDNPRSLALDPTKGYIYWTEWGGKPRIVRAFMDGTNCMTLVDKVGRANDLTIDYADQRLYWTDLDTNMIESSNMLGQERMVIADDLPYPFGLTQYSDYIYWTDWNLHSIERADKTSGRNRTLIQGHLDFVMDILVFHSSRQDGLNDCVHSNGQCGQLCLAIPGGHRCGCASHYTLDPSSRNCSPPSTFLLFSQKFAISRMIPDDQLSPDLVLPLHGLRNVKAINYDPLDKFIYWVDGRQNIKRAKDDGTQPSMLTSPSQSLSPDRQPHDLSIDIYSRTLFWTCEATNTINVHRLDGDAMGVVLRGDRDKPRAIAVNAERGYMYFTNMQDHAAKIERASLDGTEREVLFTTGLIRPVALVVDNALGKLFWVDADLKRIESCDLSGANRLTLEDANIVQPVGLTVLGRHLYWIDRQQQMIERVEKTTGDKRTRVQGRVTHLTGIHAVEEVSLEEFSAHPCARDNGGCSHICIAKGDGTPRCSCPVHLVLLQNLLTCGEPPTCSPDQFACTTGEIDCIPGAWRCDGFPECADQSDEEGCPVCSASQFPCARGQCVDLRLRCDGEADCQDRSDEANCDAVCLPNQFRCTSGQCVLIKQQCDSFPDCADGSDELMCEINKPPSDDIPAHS
Nature of the assay: single-point ELISA, coated antigen, purified Fab or IgG1, anti-kappa-HRP. The method, then: (§1) FIGS. 1A and 1B show sixteen (16) anti-LRP antibodies. (A) The amino acid sequences of the complementarity determining regions (CDR) of the heavy (H) and the light (L) chains are presented. The antibodies were grouped into unique epitopes as determined by competitive ELISAs. (B) Single-point ELISAs were performed on 96-well Maxisorb immune plates coated with ECD's of mouse LRP5, mouse LRP6 and human LRP6 chimeras. The plates were incubated with the purified Fab or IgG1 at the concentrations indicated followed by incubation with horseradish peroxidase (HRP)-conjugated anti-kappa antibody. The wells were washed eight times followed by incubation with 3,3′,5,5′-tetramethylbenzidine/H₂O₂ peroxidase (TMB) substrate for 5-10 min. The reaction was stopped by adding 1M H₃PO₄ and the absorbance was measured spectrometrically at 450 nm in a microtiter plate reader. FIG. 1A discloses “SSVA” as SEQ ID NO: 34, and “SASSLYS” as SEQ ID NO: 35, as well as SEQ ID NOS 36-49, 51, 44, 2-4, 4, 5-7, 5, 4, 5, 8-10, 4, 52, 55, 11-16, 15, 15, 13, 17-20, 13, 53, 56, 21-23, 22, 24-33, 54, 57, respectively, in order of columns.
(§2) The full length IgG1s and the antibody fragments (Fabs) were purified and a single-point ELISA was done to determine the specificity of the antibodies. […] A multipoint competitive ELISA was used to determine the relative affinities of the antibodies to the recombinant antigen.

Assay [2] has as its target T2, recombinant mouse LRP6-His chimera (mouse, UniProt O88572 20-1370).
T2 construct: extracellular domain; also called ECD of mouse LRP6; not shown: His tag
T2 sequence (looked up): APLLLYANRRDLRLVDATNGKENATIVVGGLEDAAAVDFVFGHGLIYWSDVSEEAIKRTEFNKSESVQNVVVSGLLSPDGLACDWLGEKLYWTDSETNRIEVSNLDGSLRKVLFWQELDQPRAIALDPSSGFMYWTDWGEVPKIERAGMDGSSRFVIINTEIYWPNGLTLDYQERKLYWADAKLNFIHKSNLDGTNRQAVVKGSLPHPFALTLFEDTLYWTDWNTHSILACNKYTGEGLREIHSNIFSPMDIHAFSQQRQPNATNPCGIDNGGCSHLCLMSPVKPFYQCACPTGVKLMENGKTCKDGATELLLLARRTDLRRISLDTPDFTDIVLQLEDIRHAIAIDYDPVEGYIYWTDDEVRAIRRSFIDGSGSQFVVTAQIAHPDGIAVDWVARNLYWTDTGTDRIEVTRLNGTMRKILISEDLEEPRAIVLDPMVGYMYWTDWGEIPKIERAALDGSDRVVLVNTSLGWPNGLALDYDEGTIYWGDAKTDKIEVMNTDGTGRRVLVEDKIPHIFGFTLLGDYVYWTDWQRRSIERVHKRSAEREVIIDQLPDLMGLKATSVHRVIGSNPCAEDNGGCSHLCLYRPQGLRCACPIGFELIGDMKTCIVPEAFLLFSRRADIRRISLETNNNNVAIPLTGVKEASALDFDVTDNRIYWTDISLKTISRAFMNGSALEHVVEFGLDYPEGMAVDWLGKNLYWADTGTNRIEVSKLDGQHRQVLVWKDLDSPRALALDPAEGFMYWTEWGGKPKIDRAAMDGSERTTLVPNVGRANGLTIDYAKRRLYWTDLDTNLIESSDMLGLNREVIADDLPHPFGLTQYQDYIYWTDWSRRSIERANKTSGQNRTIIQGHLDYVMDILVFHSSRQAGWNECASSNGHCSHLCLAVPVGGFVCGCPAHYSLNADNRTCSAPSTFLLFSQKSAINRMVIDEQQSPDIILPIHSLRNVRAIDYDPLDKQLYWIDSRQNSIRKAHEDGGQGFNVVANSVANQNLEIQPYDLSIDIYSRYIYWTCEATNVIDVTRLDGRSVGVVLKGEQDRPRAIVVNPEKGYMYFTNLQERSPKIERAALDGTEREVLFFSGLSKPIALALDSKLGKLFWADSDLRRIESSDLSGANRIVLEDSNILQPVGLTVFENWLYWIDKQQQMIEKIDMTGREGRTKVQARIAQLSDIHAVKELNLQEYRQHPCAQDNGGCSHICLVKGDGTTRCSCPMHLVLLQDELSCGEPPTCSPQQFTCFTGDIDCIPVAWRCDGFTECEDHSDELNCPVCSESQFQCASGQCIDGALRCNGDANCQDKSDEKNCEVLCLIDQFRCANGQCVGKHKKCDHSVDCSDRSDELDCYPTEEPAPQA
The assay is described as above. Here is the method: as §1, §2

B1: LRP5-R3O_D3 (antibody, V domains shown)
VH: EVQLVESGGGLVQPGGSLRLSCAASGFNFSSSSIHWVRQAPGKGLEWVASISSSYGYTYYADSVKGRFTISADTSKNTAYLQMNSLRAEDTAVYYCARSWAMDYWGQGTLVTVSS
VL: DIQMTQSPSSLSASVGDRVTITCRASQSVSSAVAWYQQKPGKAPKLLIYSASSLYSGVPSRFSGSRSGTDFTLTISSLQPEDFATYYCQQYWAYYSPITFGQGTKVEIKR
notes: Fab-phage in the screen; also called LRP5-R30_D3; LRP5-R30D3
Turning to B1, the binding result in assay [1] and in assay [2] was “binds” in each case.

Source of the values: US20230183336A1 (MODMAB THERAPEUTICS, published 2023).
